Results as given in patent publication US20100167321A1 (AICHI PREFECTURE, published 2010).

T1: HLA-A2402 molecule on T2-A24 cells (human, UniProt P04439-2 25-302 at identity 0.92))
T1 construct: whole, on cells; Cell-surface HLA-A2402 of T2-A24 transfectants; also called HLA-A24 molecules
T1 MHC heavy: not shown


Target: T1, HLA-A2402 molecule on T2-A24 cells
Assay: MHC stabilization assay, T2-A24 cells with 10 µM peptide, anti-HLA-A2402 mAb staining, flow cytometry
Procedure: To be specific, each peptide with a concentration of 10 μM was incubated at 26° C. for 16 hours in a 200 μL RPMI1640 culture medium containing T2-A24 cells (2×10⁵ cells), 0.1% FCS, and 5×10⁻⁵ M β-mercaptoethanol, followed by a further incubation at 37° C. for 3 hours. After incubation, cell-surface HLA-A2402 molecules were stained with an anti-HLA-A2402 monoclonal antibody and the FITC-labeled antibody of (3) above. The expression level was determined by FACSCalibur and the mean fluorescence intensity (MFI) was recorded.

% MFI increase	Binder
16%	EMGEMHREL (Synthetic peptide) [Ep304 (Ep-CAM 304-312 peptide EMGEMHREL)]
24%	KYEKAEIKEM (Synthetic peptide) [Ep296 (Ep-CAM 296-305 peptide KYEKAEIKEM)]

Continued, binder first:

Binder	% MFI increase
YYVDEKAPEF (Synthetic peptide) [Ep250 (Ep-CAM 250-259 peptide YYVDEKAPEF)]	57%
LFHSKKMDL (Synthetic peptide) [Ep225 (Ep-CAM 225-233 peptide LFHSKKMDL)]	29%
LYENNVITI (Synthetic peptide) [Ep185 (Ep-CAM 185-193 peptide LYENNVITI)]	79%
NYKLAVNCF (Synthetic peptide) [Ep31 (Ep-CAM 31-39 peptide NYKLAVNCF)]	85%
